According to patent US20240101668A1 (WUGEN, published 2024):
Numbering of substitutions follows the chain as printed.

B1: Polypeptide No. 91 (scFv, V domains shown)
VH: QVQLVQSGAEVKKPGASVKVSCKASGGTFSSYAISWVRQAPGQGLEWMGWMNPNSGNTGYAQKFQGRVTMTRDTSTSTVYMELSSLRSEDTAVYYCAREDYYDSSGNFDYWGQGTLVTVSS
VL: DIQMTQSPSSLSASVGDRVTITCQASHDINIHLNWYQQKPGKAPKLLIYDASNLETGVPSRFSGSGSGTDFTLTISSLQPEDFATYYCQQAYSLPWTFGQGTKVEIKR
notes: scFv
B2: Polypeptide No. 191 (scFv, V domains shown)
VH: B1 VH
VL: B1 VL
notes: scFv
B3: Polypeptide No. 89 (scFv, V domains shown)
VH: QVQLVQSGAEVKKPGASVKVSCKASGYTFTNYYMHWVRQAPGQGLEWMGWINPNSGDTNYEQKFQGRVTMTRDTSTSTVYMELSSLRSEDTAVYYCARDDRIQLWVPLVFWGQGTLVTVSS
VL: DIQMTQSPSSLSASVGDRVTITCRASQGISNYLAWYQQKPGKAPKLLIYSASNLQSGVPSRFSGSGSGTDFTLTISSLQPEDFATYYCQQSFSTPFTFGQGTKLEIKR
notes: scFv
B4: Polypeptide No. 192 (scFv, V domains shown)
VH: B3 VH
VL: B3 VL
notes: scFv
B5: Polypeptide No. 90 (scFv, V domains shown)
VH: EVQLLESGGGLVQPGGSLRLSCAASGFTFSNSDMNWVRQAPGKGLEWVSYISGTGSTIYYADSVKGRFTISRDNSKNTLYLQMNSLRAEDTAVYYCAKDYDSSYGSGYYGMDVWGQGTTVTVSS
VL: B3 VL with G28S, S30Y, A34N, S50A, S91Y, F92G, S93N, T94A, F96L, L104V
notes: scFv
B6: Polypeptide No. 100 (scFv, V domains shown)
VH: QVQLVQSGAEVKKPGASVKVSCKASGATRSWMHWVRQAPGQGLEWMGIINPSGDSTSYAQKFQGRVTMTRDTSTSTVYMELSSLRSEDTAVYYCAKEPYSSSPYYFDYWGQGTLVTVSS
VL: B3 VL with G28S, N31S, Y32W, S50G, N53S, F92Y, S93T, F96I, K103R
notes: scFv
B7: Polypeptide No. 193 (scFv, V domains shown)
VH: B5 VH
VL: B3 VL with G28S, S30Y, A34N, S50A, S91Y, F92G, S93N, T94A, F96L, L104V
notes: scFv
B8: Polypeptide No. 108 (scFv, V domains shown)
VH: QVQLVQSGAEVKKPGASVKVSCKASGYTFTNYDINWVRQAPGQGLEWMGWMNPNSGNTGLVEKFQGRVTMTRDTSTSTVYMELSSLRSEDTAVYYCARGWGHGYGDYKFDYWGQGTLVTVSS
VL: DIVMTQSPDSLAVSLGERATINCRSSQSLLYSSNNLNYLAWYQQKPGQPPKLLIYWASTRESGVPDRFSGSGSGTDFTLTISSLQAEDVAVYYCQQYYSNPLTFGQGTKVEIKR
notes: scFv
B9: Polypeptide No. 226 (scFv, V domains shown)
VH: QVQLVQSGAEVKKPGASVKVSCKASGYTFTGYYMHWVRQAPGQGLEWMGIIDPSGGSTSYAQKFQGRVTMTRDTSTSTVYMELSSLRSEDTAVYYCARDRSLLWSGVGGMDVWGQGTTVTVSS
VL: B3 VL with S50G, F92Y, S93G, F96Y
notes: scFv
B10: Polypeptide No. 210 (scFv, V domains shown)
VH: QVQLVQSGAEVKKPGSSVKVSCKASGYTLTELSMHWVRQAPGQGLEWMGGIIPISGTTKYAQKFQGRVTITADESTSTAYMELSSLRSEDTAVYYCARASPRYYMDVWGKGTTVTVSS
VL: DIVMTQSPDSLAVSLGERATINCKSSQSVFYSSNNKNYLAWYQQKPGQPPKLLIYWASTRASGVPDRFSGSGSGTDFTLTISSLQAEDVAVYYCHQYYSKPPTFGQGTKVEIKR
notes: scFv
B11: Polypeptide No. 245 (scFv, V domains shown)
VH: QVQLVQSGAEVKKPGSSVKVSCKASGYTFTGFYIHWVRQAPGQGLEWMGGVIPFFSRTIYAQKFQGRVTITADESTSTAYMELSSLRSEDTAVYYCAYGANGHLYGMDAWGQGTTVTVSS
VL: EIVMTQSPATLSVSPGERATLSCRASQSVSSSYLAWYQQKPGQAPRLLIYGASTRATGIPARFSGSGSGTEFTLTISSLQSEDFAVYYCQQYSSSPLTFGQGTKVEIKR
notes: scFv
B12: Polypeptide No. 263 (scFv, V domains shown)
VH: QVQLVQSGAEVKKPGSSVKVSCKASGGTFSSYAISWVRQAPGQGLEWMGGIIPIVGVANYAQKLQGRVTITADESTSTAYMELSSLRSEDTAVYYCAKDIGGYPSDAFDIWGQGTTVTVSS
VL: B11 VL with G51D, A52V, S93G, L97I
notes: scFv
B13: Polypeptide No. 281 (scFv, V domains shown)
VH: QVQLVQSGAEVKKPGASVKVSCKASGYTFNSYGISWVRQAPGQGLEWMGIINPTGGSTTYAQKFQGRVTMTRDTSTSTVYMELSSLRSEDTAVYYCAKDPFVMDVWGQGTTVTVSS
VL: B11 VL with G51D, T54A, T57A, S93Y, S95T, L97Y, V105L
notes: scFv
B14: Polypeptide No. 250 (scFv, V domains shown)
VH: QVQLVQSGAEVKKPGSSVKVSCKASGYTLTSFAMHWVRQAPGQGLEWMGRIIPMSGTANYAQKFQGRVTITADESTSTAYMELSSLRSEDTAVYYCASTSPDQYYYGMDVWGQGTTVTVSS
VL: B11 VL with S30G, Y33S, S93G, L97Y
notes: scFv
B15: Polypeptide No. 268 (scFv, V domains shown)
VH: QVQLVQSGAEVKKPGSSVKVSCKASGGTFSTYALSWVRQAPGQGLEWMGGVIPVFGTTDYAHKFQGRVTITADESTSTAYMELSSLRSEDTAVYYCASMIIFGAGGWDAYYFQEWGQGTLVTVSS
VL: B11 VL with S30N, S31N, S32N, Y33Q, G51D, A52T, T54S, S93D, S94T, L97Y
notes: scFv
B16: Polypeptide No. 224 (scFv, V domains shown)
VH: QVQLVQSGAEVKKPGSSVKVSCKASGYTFTGYYMHWVRQAPGQGLEWMGVINPIYGTANYALKFQGRVTITADESTSTAYMELSSLRSEDTAVYYCAKAISSGWSNDAFDIWGQGTMVTVSS
VL: EIVMTQSPATLSVSPGERATLSCRASQSVSSDFLAWYQQKPGQAPRLLIYDTSSRASGIPARFSGSGSGTEFTLTISSLQSEDFAVYYCQQYAGPPTFGQGTRLEIKR
notes: scFv

What follows are binders tested against T1, huCD33-R69 stably expressed on Jurkat cells (human, UniProt P20138 18-364) (assay: FACS on cells;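 note: fixed Jurkat lines probed with myc-tagged scFv periplasmic extracts, anti-myc PE flow cytometry, PE MFI fold binned − <2, + 2–10, ++ 10–30, +++ >30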).
T1 construct: whole, on cells; >200,000 receptors per cell; also called CD33 WT; CD33^ARG69
T1 sequence (P20138 18-364): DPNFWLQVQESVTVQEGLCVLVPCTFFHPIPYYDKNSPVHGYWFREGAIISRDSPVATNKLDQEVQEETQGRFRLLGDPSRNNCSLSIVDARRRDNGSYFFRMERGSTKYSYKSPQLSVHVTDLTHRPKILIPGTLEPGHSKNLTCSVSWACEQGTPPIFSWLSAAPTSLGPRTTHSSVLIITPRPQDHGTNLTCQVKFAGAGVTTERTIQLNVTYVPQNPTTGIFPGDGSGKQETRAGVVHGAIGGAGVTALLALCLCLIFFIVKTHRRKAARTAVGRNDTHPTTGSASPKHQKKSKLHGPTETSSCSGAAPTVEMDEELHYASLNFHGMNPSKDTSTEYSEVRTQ

FACS geometric mean fold change over Jurkat parental [fold]	Binder
> 30	B1
> 30	B2
10 to 30	B3
10 to 30	B4
> 30	B5
10 to 30	B6
> 30	B7
10 to 30	B8

Each binder was assayed against T2, huCD33-G69 stably expressed on Jurkat cells (human, UniProt P20138 18-364) (assay: FACS on cells;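 note: fixed Jurkat lines probed with myc-tagged scFv periplasmic extracts, anti-myc PE flow cytometry, PE MFI fold binned − <2, + 2–10, ++ 10–30, +++ >30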).
T2 construct: whole, on cells; >200,000 receptors per cell; also called CD33 Mutant; CD33 R69G
T2 sequence (P20138 18-364 R69G): as the sequence (P20138 18-364) above, with R52G counted along it

FACS geometric mean fold change over Jurkat parental [fold]	Binder
10 to 30	B1
10 to 30	B2
10 to 30	B3
10 to 30	B4
> 30	B5
10 to 30	B6
> 30	B7
10 to 30	B8

The binders below were run against T3, huFLT3-M227 stably expressed on Ramos cells (human, UniProt P36888 27-993) (assay: FACS on cells).
T3 construct: whole, on cells; also called FLT3 Mutant
T3 sequence (P36888 27-993 T227M): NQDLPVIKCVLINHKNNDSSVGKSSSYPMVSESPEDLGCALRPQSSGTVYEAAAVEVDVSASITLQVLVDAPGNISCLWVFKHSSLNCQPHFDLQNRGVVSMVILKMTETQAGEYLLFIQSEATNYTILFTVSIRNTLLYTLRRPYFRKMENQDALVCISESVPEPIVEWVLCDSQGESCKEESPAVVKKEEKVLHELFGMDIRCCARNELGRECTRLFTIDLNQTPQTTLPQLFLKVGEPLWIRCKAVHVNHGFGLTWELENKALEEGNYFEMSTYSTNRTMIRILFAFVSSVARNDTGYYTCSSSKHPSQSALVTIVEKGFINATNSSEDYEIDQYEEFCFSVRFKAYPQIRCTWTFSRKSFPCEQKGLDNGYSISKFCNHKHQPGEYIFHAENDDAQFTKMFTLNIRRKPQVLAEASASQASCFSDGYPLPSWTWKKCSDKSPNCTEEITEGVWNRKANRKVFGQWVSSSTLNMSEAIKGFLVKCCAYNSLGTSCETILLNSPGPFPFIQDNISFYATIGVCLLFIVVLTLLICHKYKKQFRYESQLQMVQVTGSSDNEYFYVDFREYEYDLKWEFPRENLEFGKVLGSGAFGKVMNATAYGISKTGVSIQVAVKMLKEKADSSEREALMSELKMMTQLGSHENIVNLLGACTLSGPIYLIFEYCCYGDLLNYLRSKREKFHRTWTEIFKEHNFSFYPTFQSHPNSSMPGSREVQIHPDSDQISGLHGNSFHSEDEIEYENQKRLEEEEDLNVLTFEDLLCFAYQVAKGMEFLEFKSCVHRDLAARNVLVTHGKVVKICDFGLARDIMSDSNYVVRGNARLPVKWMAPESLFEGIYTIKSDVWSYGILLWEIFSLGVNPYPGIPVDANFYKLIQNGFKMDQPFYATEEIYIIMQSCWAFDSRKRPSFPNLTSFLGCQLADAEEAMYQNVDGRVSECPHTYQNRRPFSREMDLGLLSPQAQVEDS
Method: For FLT3, Ramos cells were engineered to stably express either the huFLT3-T227 or huFLT3-M227 variant at >200,000 receptors per cell. Parental, huFLT3-T227, and huFLT3-M227 Ramos cell lines were stained with differing levels of CellTrace Violet Cell Proliferation Kit (ThermoFisher, cat. #C34557) to barcode each cell line. Barcoded Ramos cell lines were fixed with paraformaldehyde and incubated with myc-labeled scFv periplasmic extracts and a secondary anti-myc PE-conjugated monoclonal antibody. Appropriate positive and negative controls were used. Stained cells were analyzed by flow cytometry (CytoFLEX, Beckman Coulter, Inc.) and binding was assessed by change in PE mean fluorescence intensity (MFI) of the barcoded cell populations.

FACS geometric mean fold change over Jurkat parental [fold]	Binder
2 to 10	B9
2 to 10	B10
2 to 10	B11
2 to 10	B12
2 to 10	B13
2 to 10	B14
2 to 10	B15
2 to 10	B16
